Reference: patent US20240093310A1 (Dana-Farber, published 2024)

Experiments:
[1] = target: T1, C-RAF G361A resistance mutant (human, UniProt P04049 1-648); assay: C-RAF immunoprecipitation, 14-3-3ζ immunoblot, 293T and A375 cells, no RAF inhibitor (FIG. 7A, 7B)
T1 construct: His/V5- or Flag-tagged in the homodimerization assays; also called 361G>A

[2] = target: T2, C-RAF S257P resistance mutant (human, UniProt P04049 1-648); assay: as above
T2 construct: His/V5- or Flag-tagged in the homodimerization assays

[3] = target: T3, C-RAF P261T resistance mutant (human, UniProt P04049 1-648); assay: as above
T3 construct: His/V5- or Flag-tagged in the homodimerization assays

wild-type human C-RAF = target: T4, wild-type human C-RAF (human, UniProt P04049 1-648); assay: C-RAF immunoprecipitation, 14-3-3ζ immunoblot, A375 cells with and without 2 µM vemurafenib (FIG. 7B)
T4 construct: In the homodimerization assays the copies carried a His/V5 tag or a Flag tag; also called WT-C-RAF; C-RAF (WT)

binding result [1]: binds | binding result [2]: binds | binding result [3]: binds | binding result (wild-type human C-RAF): binds
B1: 14-3-3 ζ (other, UniProt P63104 1-245, looked up)
chain: MDKNELVQKAKLAEQAERYDDMAACMKSVTEQGAELSNEERNLLSVAYKNVVGARRSSWRVVSSIEQKTEGAEKKQQMAREYREKIETELRDICNDVLSLLEKFLIPNASQAESKVFYLKMKGDYYRYLAEVAAGDDKKGIVDQSQQAYQEAFEISKKEMQPTHPIRLGLALNFSVFYYEILNSPEKACSLAKTAFDEAIAELDTLSEESYKDSTLIMQLLRDNLTLWTSDTQGDEAEAGEGGEN
notes: The Western blot methods list a 14-3-3ζ antibody (Cell Signaling)
